For 1 protein, localisation_or_trafficking results are on record in paper PMC4026322.

The nature of this data set: immunofluorescence in HEK293 cells (data not shown). To be noted: glycan lost; control: wild type.

B1: ABCC6: N15D (protein)
parent chain: MAAPAEPCAGQGVWNQTEPEPAATSLLSLCFLRTAGVWVPPMYLWVLGPIYLLFIHHHGRGYLRMSPLFKAKMVLGFALIVLCTSSVAVALWKIQQGTPEAPEFLIHPTVWLTTMSFAVFLIHTERKKGVQSSGVLFGYWLLCFVLPATNAAQQASGAGFQSDPVRHLSTYLCLSLVVAQFVLSCLADQPPFFPEDPQQSNPCPETGAAFPSKATFWWVSGLVWRGYRRPLRPKDLWSLGRENSSEELVSRLEKEWMRNRSAARRHNKAIAFKRKGGSGMKAPETEPFLRQEGSQWRPLLKAIWQVFHSTFLLGTLSLIISDVFRFTVPKLLSLFLEFIGDPKPPAWKGYLLAVLMFLSACLQTLFEQQNMYRLKVLQMRLRSAITGLVYRKVLALSSGSRKASAVGDVVNLVSVDVQRLTESVLYLNGLWLPLVWIVVCFVYLWQLLGPSALTAIAVFLSLLPLNFFISKKRNHHQEEQMRQKDSRARLTSSILRNSKTIKFHGWEGAFLDRVLGIRGQELGALRTSGLLFSVSLVSFQVSTFLVALVVFAVHTLVAENAMNAEKAFVTLTVLNILNKAQAFLPFSIHSLVQARVSFDRLVTFLCLEEVDPGVVDSSSSGSAAGKDCITIHSATFAWSQESPPCLHRINLTVPQGCLLAVVGPVGAGKSSLLSALLGELSKVEGFVSIEGAVAYVPQEAWVQNTSVVENVCFGQELDPPWLERVLEACALQPDVDSFPEGIHTSIGEQGMNLSGGQKQRLSLARAVYRKAAVYLLDDPLAALDAHVGQHVFNQVIGPGGLLQGTTRILVTHALHILPQADWIIVLANGAIAEMGSYQELLQRKGALMCLLDQARQPGDRGEGETEPGTSTKDPRGTSAGRRPELRRERSIKSVPEKDRTTSEAQTEVPLDDPDRAGWPAGKDSIQYGRVKATVHLAYLRAVGTPLCLYALFLFLCQQVASFCRGYWLSLWADDPAVGGQQTQAALRGGIFGLLGCLQAIGLFASMAAVLLGGARASRLLFQRLLWDVVRSPISFFERTPIGHLLNRFSKETDTVDVDIPDKLRSLLMYAFGLLEVSLVVAVATPLATVAILPLFLLYAGFQSLYVVSSCQLRRLESASYSSVCSHMAETFQGSTVVRAFRTQAPFVAQNNARVDESQRISFPRLVADRWLAANVELLGNGLVFAAATCAVLSKAHLSAGLVGFSVSAALQVTQTLQWVVRNWTDLENSIVSVERMQDYAWTPKEAPWRLPTCAAQPPWPQGGQIEFRDFGLRYRPELPLAVQGVSFKIHAGEKVGIVGRTGAGKSSLASGLLRLQEAAEGGIWIDGVPIAHVGLHTLRSRISIIPQDPILFPGSLRMNLDLLQEHSDEAIWAALETVQLKALVASLPGQLQYKCADRGEDLSVGQKQLLCLARALLRKTQILILDEATAAVDPGTELQMQAMLGSWFAQCTVLLIAHRLRSVMDCARVLVMDKGQVAESGSPAQLLAQKGLFYRLAQESGLV
For B1, the localisation_or_trafficking result is listed as “no change”.
